Assay results from the supplement of paper PMC9170038.

System: MS2 coat protein
Assay: apparent KD of MS2 coat protein; designed switch direction (-1 OFF switch, 1 ON switch): -1; higher = weaker reporter binding
Summary of the method: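 On Illumina chips, designed RNA switches with common flanks were made by stalled E. coli RNA polymerase. Titrations with SNAP-549-labelled MS2 coat protein, doubling from 0.7 or 1.5 nM to 3 µM, were done with no input, with 200 uM small-molecule ligand, or with an oligonucleotide input. Apparent KD is the median per design over clusters, from curve fits of normalised cluster fluorescence.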

[1] = Eterna round: R95, input ligand: microRNA oligo, concentration not stated
[2] = input ligand: microRNA oligo, concentration not stated
[3] = Eterna round: R95, input ligand: FMN 200 uM
[4] = Eterna round: R95, input ligand: none

| Sequence | apparent KD of MS2 coat protein (input ligand: FMN 200 uM) [nM] | apparent KD of MS2 coat protein (input ligand: none) [nM] | apparent KD of MS2 coat protein [1] [nM] | apparent KD of MS2 coat protein [2] [nM] | apparent KD of MS2 coat protein [3] [nM] | apparent KD of MS2 coat protein [4] [nM] |
| --- | --- | --- | --- | --- | --- | --- |
| CACGUGAUUGGGCUCAUUAACAUGAGGAUCACCCAUGUGUGUGUUUUAGGAUGCCCACAAGCUUUUUCGCCGUCUAG [Eternabot (L1) Solution 3] (Eterna round: R97, puzzle: Sensor, turn-off variant 1) | 51 | 64.8 |  |  |  |  |
| CAGCCCUGAGGAUAUCCAUCCUCGUACAUGAGGAUCACCCAUGUCUCCCUCUGGGCUUUCGGAGAAGGCAGGUAUC [Megrez-6.1] (Eterna round: R97, puzzle: Exclusion 5) | 743 | 976 |  |  |  |  |
| CAGCCCUGAGGAUAUCCCUACUUGCACAUGAGGAUCACCCAUGUCCUCCUCCGGGCUUCGGGAGAAGGCAGGUCUC [Megrez-7.5] (Eterna round: R97, puzzle: Exclusion 5) | 23.8 | 17 |  |  |  |  |
| CAGCGAACAGGAUAUACAUGAGGAUCACCCAUGUGUUCCAGCUAGGAAACUAGCAAAUGUAGAAGGGUUCGCUG [Mat - Exclusion 3 - JL Mod - D2] (Eterna round: R97, puzzle: Exclusion 3) | 584 | 324 |  |  |  |  |
| CAGCUGAAAGUGAGGAUAUCUAGAGCCUCGGCUCUAGAGAAGGCACAUGAGGAUCACCCAUGUCUCAACAGCUG [BmEx4/1-A2] (Eterna round: R97, puzzle: Brourd's mod of Exclusion 4) | 67.1 | 19.6 |  |  |  |  |
| CAGUACUGAGGAUAUACAUGAGGAUCACCCAUGUGCUCGAAGUAGGAUACUACUAUUAGUAGAAGGCAGUACUG [Fiskers Ex 3 828 mod 22] (puzzle: Exclusion 3) |  |  | 15.9 |  |  |  |
| CAGUACUGAGGAUAUACAUGAGGAUCACCCAUGUGCUUCAGCUAGGAUACUAGCAUUAGUAGAAGGCAGUACUG [Fiskers Ex 3 828 mod 13] (Eterna round: R96, puzzle: Exclusion 3) | 81 | 13.9 |  | 10.8 |  |  |
| CAGUACUGAGGAUAUACAUGAGGAUCACCCAUGUGCUUCAGCUAGGAUACUAGCAUUAGUAGAAGGCAGUACUG [Fiskers Ex 3 828 mod 13] (puzzle: Exclusion 3) |  |  | 11.3 |  |  |  |
| CAGUACUGAGGAUAUACAUGAGGAUCACCCAUGUGCUUUAGCUAGGAUACUAGCACCAGUAGAAGGCAGUACUG [Fiskers Ex 3 828 mod 12] (puzzle: Exclusion 3) |  |  | 10.7 |  |  |  |
| CAGUACUGAGGAUAUACAUGAGGAUCACCCAUGUGUCCUAGCUAGGAAACUAGCAUUAGUAGAAGGCAGUACUG [Fiskers Ex 3 828 mod 6] (Eterna round: R96, puzzle: Exclusion 3) | 225 | 19.5 |  | 16.9 |  |  |
| CAGUACUGAGGAUAUACAUGAGGAUCACCCAUGUGUCCUAGCUAGGAAACUAGCAUUAGUAGAAGGCAGUACUG [Fiskers Ex 3 828 mod 6] (puzzle: Exclusion 3) |  |  | 22.1 |  |  |  |
| CAGUACUGAGGAUAUACAUGAGGAUCACCCAUGUGUCUUAUAUUAGGAAACUAGGUAUGUAGAAGGCAGUACUG [Omei Ex3 Mod of Eli 4.27 v4] (Eterna round: R97, puzzle: Exclusion 3) | 304 | 62.1 |  |  |  |  |
| CAGUACUGAGGAUAUACAUGAGGAUCACCCAUGUGUGUGAGAUUUGGAUGAAAGUUAUGUAGAAGGCGGUGCUG [JR_Ex3_Sub037] (Eterna round: R97, puzzle: Exclusion 3) | 68.4 | 73.8 |  |  |  |  |
| CAGUACUGAGGAUAUACAUGAGGAUCACCCAUGUGUGUGCGUUUUGUAUGAAUGUUAUGUAGAAGGCGGUGCUG [JR_Ex3_Sub035] (Eterna round: R97, puzzle: Exclusion 3) | 201 | 39.1 |  |  |  |  |
| CAGUACUGAGGAUAUACAUGAGGAUCACCCAUGUGUUCCAGCUAGGAAACUAGCACUUGUAGAAGGCAGUACUG [Ex3: 830] (Eterna round: R96, puzzle: Exclusion 3) | 458 | 26.7 |  | 21.6 |  |  |
| CAGUACUGAGGAUAUACAUGAGGAUCACCCAUGUGUUCCAGCUAGGAAACUAGCAUAAGUAGAAGGCAGUACUG [salish99_ex3_r3_091x] (Eterna round: R96, puzzle: Exclusion 3) | 461 | 23.6 |  | 18.4 |  |  |
| CAGUACUGAGGAUAUACAUGAGGAUCACCCAUGUGUUCCAGCUAGGAAACUAGCAUAAGUAGAAGGCAGUACUG [salish99_ex3_r3_091x] (puzzle: Exclusion 3) |  |  | 21.8 |  |  |  |
| CAGUACUGAGGAUAUACAUGAGGAUCACCCAUGUGUUCCAGCUAGGAAACUGGCAAAAGUAGAAGGCAGUACUG [salish99_ex3_r3_070] (puzzle: Exclusion 3) |  |  | 21.6 |  |  |  |

| Sequence | apparent KD of MS2 coat protein (input ligand: FMN 200 uM) [nM] | apparent KD of MS2 coat protein (input ligand: none) [nM] | apparent KD of MS2 coat protein [1] [nM] | apparent KD of MS2 coat protein [2] [nM] | apparent KD of MS2 coat protein [3] [nM] | apparent KD of MS2 coat protein [4] [nM] |
| --- | --- | --- | --- | --- | --- | --- |
| CAGUACUGAGGAUAUACAUGAGGAUCACCCAUGUUCUUCGGCUAGGAAACUAGCAAAGGUAGAAGGCAGUACUG [Salish 065 m16] (Eterna round: R97, puzzle: Exclusion 3) | 285 | 15.7 |  |  |  |  |
| CAGUACUGCAAGCUAUGGGACAUGAGGAUCACCCAUGUUCGUCUUAUUGAUCUAGGUACGCUGACGUACCUAGAUCU [JL-sv1-2.20 Brourd mod] (puzzle: Sensor v3, turn-off variant 1) |  |  | 20.5 |  | 16.3 | 15.9 |
| CAGUACUGCAGGCUUCGGGACAUGAGGAUCACCCAUGUUCGUCUUAUUGAUCUAGGUACGCUGACGUACCUAGAUCU [JL-sv1-2.16 Brourd mod] (puzzle: Sensor v3, turn-off variant 1) |  |  | 18.6 |  | 16.7 | 15.4 |
| CAUAAUGCAGGAUAUACCAAAUGGCAGUGAAUGCGUGCGCAACAUGAGGAUCACCCAUGUAGAAGGGCACAAGA [Eternabot (Original) Solution 27] (Eterna round: R97, puzzle: Exclusion 2) | 18 | 13.5 |  |  |  |  |
| CAUAGUUACUCAGGAUAUAGUACAUGAGGAUCACCCAUGUAAUAAAUGAGAAUUUCGAAUGUAUACUAGAAGGGAGAAAUCUAC [Ostracism 55 - Jieux - Exclusion NG 2] (Eterna round: R96, puzzle: Exclusion NG 2) | 44.5 | 46.1 |  | 35.8 |  |  |
| CAUAUACAUGAGGAUCACCCAUGUGAGGAUAUGCUUUAUUAUUAUUAUUAUUAUUAUUGCAGAAGGUACAUUAC [LRO-Excl01-12] (Eterna round: R97, puzzle: Exclusion 1) | 23.9 | 24.6 |  |  |  |  |
| CAUGAUCUUCGGAUCAUGUACAUGAGGAUCACCCAUGUGACGAGUUACAUGUUUUACAAGCUUUUUGCUCGUCUUAU [Sensor v3 - Turn-off variant 1 - 14] (puzzle: Sensor v3, turn-off variant 1) |  |  | 99.4 |  | 40.3 | 47.4 |
| CAUGAUUGGCGAGGAUAUUGACCUAGUUCGCGACGAGAAGGCGCCUGUCACAUGAGGAUCACCCAUGUGAAUCUGGUGAAAGAG [Ex NG1 #91] (Eterna round: R96, puzzle: Exclusion NG 1) | 14.5 | 20.3 |  | 11.4 |  |  |
| CAUGAUUGGCGAGGAUAUUGAUCUAGUUGGCGACGAGAAGGCGCCUGUCACAUGAGGAUCACCCAUGUGAAUCUGGUGAAAGAG [Ex NG1 #89] (Eterna round: R96, puzzle: Exclusion NG 1) | 24.9 | 25.9 |  | 18.5 |  |  |
| CAUGGAACAUAGGAUAUCUCGCGGCUAGACUGCAGAGAAGGAUGUACAUGAGGAUCACCCAUGUAUGAUCCAGU [Leisceza] (puzzle: Exclusion 6) |  |  | 15.8 |  | 29.3 | 17.3 |
| CAUGUGUAAGGAUAUGACAAUGGUAUCUUCGGAUACCAUUGUCAGAAGGUACAUGAGGAUCACCCAUGUACAUC [Ex4-3: 17] (puzzle: Exclusion 4) |  |  | 13.1 |  |  |  |
| CAUGUGUGAGGAUAUCCUAGACUAAUGGAGACGCUACCGUGGGAGAAGGUACAUGAGGAUCACCCAUGUGGACC [Eternabot (L1) Solution 88] (Eterna round: R97, puzzle: Exclusion 4) | 32.7 | 32.2 |  |  |  |  |
| CAUUAGCAAGCGAGAUCCCACAUGAGGAUCACCCAUGUGCUCGUCUUAUAAGGUACUGUGACGAGAGUCACGGUACC [Mat - Sensor, turn-off var - Eli Mod - D42] (Eterna round: R97, puzzle: Sensor, turn-off variant 1) | 15.2 | 16.1 |  |  |  |  |
| CAUUAUGUUGAGGAUAUGCACCAGCUCACUGACGCAGAAGGCGACACAUGAGGAUCACCCAUGUCAGUUCGCGU [salish99_ex6_r004_429] (Eterna round: R97, puzzle: Exclusion 6) | 23.5 | 17 |  |  |  |  |
| CAUUAUGUUGAGGAUAUGCGCCGGCUCGCUGGCGCAGAAGGCGACACAUGAGGAUCACCCAUGUCAGUUCGCGA [salish99_ex6_r004_418] (Eterna round: R97, puzzle: Exclusion 6) | 13.3 | 8.87 |  |  |  |  |
| CAUUAUUAUCGAGGAUAUCCUAUUGAAAUUCUGGGAGAAGGCGGACUCAACAUGAGGAUCACCCAUGUAAGACGGGUGCUAGGG [Ex NG1 #25] (Eterna round: R96, puzzle: Exclusion NG 1) | 202 | 157 |  | 93.1 |  |  |
| CAUUGACAUGAGGAUCACCCAUGUCAGGAUAUGCUUCAUGACACGAAAGUGUCAUGAAGCAGAAGGGACAUGCC [SS1 Omei 1] (puzzle: Exclusion 1) |  |  | 19.5 |  |  |  |
